According to the RNAGym collection of RNA variant scans (doi:10.7554/elife.80360):

B1: HDV Ribozyme (parent)
chain: GGCCGGCAUGGUCCCAGCCUCCUCGCUGGCGCCGGCUGGGCAACAUUCCGAGGGGACCGUCCCCUCGGUAAUGGCGAAUGGGACCCA

Variants of: B1
Assay: self-cleavage, relative activity (ratio to wild type); higher = more cleavage; co-transcriptional

| Variant | self-cleavage |
| --- | --- |
| GGCCGGCAUGGUCCCAGCCUCCUCGCUGGCGCCGGCUGGGCAACAGUCCGAGGGGACCGUCCCCUCGGUAAUGGCGAAUGGGGCCCA [U46G A83G] | 0.746 |
| GGCCGGCAUGGUCCCAGCCUCCUCGCUGGCGCCGGCUGGGCAACACUCCGAGGGGACUGUCCCCUCGGUAAUGGCGAAUGGGACCCA [U46C C58U] | 0.7 |
| GGCCGGCAUGGUCCCAGCCUCCUCGCUGGCGCCGGCUGGGCAACAAUCCGAAGGGACCGUCCCCUCGGUAAUGGCGAAUGGGACCCA [U46A G52A] | 0.776 |
| GGCCGGCAUGGUCCCAGCCUCCUCGCUGGCGCCGGCUGGGCAACAAUCCGAUGGGACCGUCCCCUCGGUAAUGGCGAAUGGGACCCA [U46A G52U] | 0.596 |
| GGCCGGCAUGGUCCCAGCCUCCUCGCUGGCGCCGGCUGGGCAACACUCCGAGGGGACCGUCCCCUGGGUAAUGGCGAAUGGGACCCA [U46C C66G] | 0.594 |
| GGCCGGCAUGGUCCCAGCCUCCUCGCUGGCGCCGGCUGGGCAACAAUCCGAGGGGACCGGCCCCUCGGUAAUGGCGAAUGGGACCCA [U46A U60G] | 0.939 |
| GGCCGGCAUGGUCCCAGCCUCCUCGCUGGCGCCGGCUGGGCAACAAUCCGAGGGGACCGCCCCCUCGGUAAUGGCGAAUGGGACCCA [U46A U60C] | 0.752 |
| GGCCGGCAUGGUCCCAGCCUCCUCGCUGGCGCCGGCUGGGCAACACUCCGAGGGGACCGUACCCUCGGUAAUGGCGAAUGGGACCCA [U46C C61A] | 1.09 |
| GGCCGGCAUGGUCCCAGCCUCCUCGCUGGCGCCGGCUGGGCAACAGUGCGAGGGGACCGUCCCCUCGGUAAUGGCGAAUGGGACCCA [U46G C48G] | 0.475 |
| GGCCGGCAUGGUCCCAGCCUCCUCGCUGGCGCCGGCUGGGCAACAAUCCGAGGGGACCAUCCCCUCGGUAAUGGCGAAUGGGACCCA [U46A G59A] | 0.78 |
| GGCCGGCAUGGUCCCAGCCUCCUCGCUGGCGCCGGCUGGGCAACACUCCGAGGGGACCGUCCCCUCGGUAAUGGCGAAUGGGACGCA [U46C C85G] | 0.675 |
| GGCCGGCAUGGUCCCAGCCUCCUCGCUGGCGCCGGCUGGGCAACACUCCGAGGGGACCGUCCCCUCGGUAAUGGCGAAUGGGACACA [U46C C85A] | 0.617 |
| GGCCGGCAUGGUCCCAGCCUCCUCGCUGGCGCCGGCUGGGCAACACUCCGAGGGGACCGUCCCCUCGGUAAUGGCGAAUGGGACUCA [U46C C85U] | 0.615 |
| GGCCGGCAUGGUCCCAGCCUCCUCGCUGGCGCCGGCUGGGCAACACUCCGAGGAGACCGUCCCCUCGGUAAUGGCGAAUGGGACCCA [U46C G54A] | 0.519 |
| GGCCGGCAUGGUCCCAGCCUCCUCGCUGGCGCCGGCUGGGCAACAAUCCGAGGGGACCGUCCCCUCAGUAAUGGCGAAUGGGACCCA [U46A G67A] | 0.703 |
| GGCCGGCAUGGUCCCAGCCUCCUCGCUGGCGCCGGCUGGGCAACAGUCGGAGGGGACCGUCCCCUCGGUAAUGGCGAAUGGGACCCA [U46G C49G] | 0.465 |
| GGCCGGCAUGGUCCCAGCCUCCUCGCUGGCGCCGGCUGGGCAACACUCCGAGGGGACCGUCCCCUCGGUAAUGCCGAAUGGGACCCA [U46C G74C] | 0.277 |
| GGCCGGCAUGGUCCCAGCCUCCUCGCUGGCGCCGGCUGGGCAACAAUCCGAGGGGACCGUCCCCUCGCUAAUGGCGAAUGGGACCCA [U46A G68C] | 0.633 |
| GGCCGGCAUGGUCCCAGCCUCCUCGCUGGCGCCGGCUGGGCAACACUCAGAGGGGACCGUCCCCUCGGUAAUGGCGAAUGGGACCCA [U46C C49A] | 0.54 |
| GGCCGGCAUGGUCCCAGCCUCCUCGCUGGCGCCGGCUGGGCAACAGUCCGUGGGGACCGUCCCCUCGGUAAUGGCGAAUGGGACCCA [U46G A51U] | 0.45 |
| GGCCGGCAUGGUCCCAGCCUCCUCGCUGGCGCCGGCUGGGCAACAAUCCGAGGGGACCGUCCCCUCGGAAAUGGCGAAUGGGACCCA [U46A U69A] | 1.08 |
| GGCCGGCAUGGUCCCAGCCUCCUCGCUGGCGCCGGCUGGGCAACAAUCCGAGGGGACCGUCCCCUCGGGAAUGGCGAAUGGGACCCA [U46A U69G] | 0.793 |

| Variant | self-cleavage |
| --- | --- |
| GGCCGGCAUGGUCCCAGCCUCCUCGCUGGCGCCGGCUGGGCAACACUCCGAGGGGACCGUCCCCUCGCUAAUGGCGAAUGGGACCCA [U46C G68C] | 0.739 |
| GGCCGGCAUGGUCCCAGCCUCCUCGCUGGCGCCGGCUGGGCAACAGUCCGAGGGGUCCGUCCCCUCGGUAAUGGCGAAUGGGACCCA [U46G A56U] | 0.917 |
| GGCCGGCAUGGUCCCAGCCUCCUCGCUGGCGCCGGCUGGGCAACAGUCCGAGGGGGCCGUCCCCUCGGUAAUGGCGAAUGGGACCCA [U46G A56G] | 0.499 |
| GGCCGGCAUGGUCCCAGCCUCCUCGCUGGCGCCGGCUGGGCAACACUCCGAGGGGACCGUCCCCUCGGGAAUGGCGAAUGGGACCCA [U46C U69G] | 1.08 |
| GGCCGGCAUGGUCCCAGCCUCCUCGCUGGCGCCGGCUGGGCAACACUCCGAGGGGACCGUCCCCUCGGAAAUGGCGAAUGGGACCCA [U46C U69A] | 0.918 |
| GGCCGGCAUGGUCCCAGCCUCCUCGCUGGCGCCGGCUGGGCAACACUCCGAGGGGACCGCCCCCUCGGUAAUGGCGAAUGGGACCCA [U46C U60C] | 0.772 |
| GGCCGGCAUGGUCCCAGCCUCCUCGCUGGCGCCGGCUGGGCAACAAUCCGAGGGGACCGUCCCCUCGGUAAUGGCGAAUGGGACCAA [U46A C86A] | 0.958 |
| GGCCGGCAUGGUCCCAGCCUCCUCGCUGGCGCCGGCUGGGCAACACUUCGAGGGGACCGUCCCCUCGGUAAUGGCGAAUGGGACCCA [U46C C48U] | 0.655 |
| GGCCGGCAUGGUCCCAGCCUCCUCGCUGGCGCCGGCUGGGCAACACUCCGAGGGGACCGUCCCCUCAGUAAUGGCGAAUGGGACCCA [U46C G67A] | 0.671 |
| GGCCGGCAUGGUCCCAGCCUCCUCGCUGGCGCCGGCUGGGCAACACUCCGAGGGGACCGUCCCCUCGGUAAUGGCGAAAGGGACCCA [U46C U79A] | 0.798 |
| GGCCGGCAUGGUCCCAGCCUCCUCGCUGGCGCCGGCUGGGCAACACUCCGAGGGGACCGUCCCCUCGGUAAUGGCUAAUGGGACCCA [U46C G76U] | 1.23 |
| GGCCGGCAUGGUCCCAGCCUCCUCGCUGGCGCCGGCUGGGCAACAGUCCGAGGGGACCGUCCCCUCGGUAAUGGCGAGUGGGACCCA [U46G A78G] | 0.443 |
| GGCCGGCAUGGUCCCAGCCUCCUCGCUGGCGCCGGCUGGGCAACACUCCGAGGGGACCGUCCCCUCGGUAAUGGCGAAUGUGACCCA [U46C G81U] | 0.302 |
| GGCCGGCAUGGUCCCAGCCUCCUCGCUGGCGCCGGCUGGGCAACACUCCGAAGGGACCGUCCCCUCGGUAAUGGCGAAUGGGACCCA [U46C G52A] | 1.03 |
| GGCCGGCAUGGUCCCAGCCUCCUCGCUGGCGCCGGCUGGGCAACACUCCGAGGGGACCGUCCCAUCGGUAAUGGCGAAUGGGACCCA [U46C C64A] | 0.569 |
| GGCCGGCAUGGUCCCAGCCUCCUCGCUGGCGCCGGCUGGGCAACAAUCCGAGGGGACCGUCCCCUCGGUAAUGGCGAAUGUGACCCA [U46A G81U] | 0.271 |
| GGCCGGCAUGGUCCCAGCCUCCUCGCUGGCGCCGGCUGGGCAACAAACCGAGGGGACCGUCCCCUCGGUAAUGGCGAAUGGGACCCA [U46A U47A] | 0.867 |
| GGCCGGCAUGGUCCCAGCCUCCUCGCUGGCGCCGGCUGGGCAACAACCCGAGGGGACCGUCCCCUCGGUAAUGGCGAAUGGGACCCA [U46A U47C] | 0.532 |
| GGCCGGCAUGGUCCCAGCCUCCUCGCUGGCGCCGGCUGGGCAACACUCCGAGGGGACCGUCCCCUCGGUAAUGGCGAAUGGGACCCG [U46C A87G] | 0.727 |
| GGCCGGCAUGGUCCCAGCCUCCUCGCUGGCGCCGGCUGGGCAACAAUCCGAGAGGACCGUCCCCUCGGUAAUGGCGAAUGGGACCCA [U46A G53A] | 0.741 |
| GGCCGGCAUGGUCCCAGCCUCCUCGCUGGCGCCGGCUGGGCAACAAUCCGAGCGGACCGUCCCCUCGGUAAUGGCGAAUGGGACCCA [U46A G53C] | 0.877 |
| GGCCGGCAUGGUCCCAGCCUCCUCGCUGGCGCCGGCUGGGCAACACUCCGAGGGGACCGUCCCCUCGGUAAUGGCGAAUGGGGCCCA [U46C A83G] | 0.402 |

| Variant | self-cleavage |
| --- | --- |
| GGCCGGCAUGGUCCCAGCCUCCUCGCUGGCGCCGGCUGGGCAACACUCCGAGGGGAACGUCCCCUCGGUAAUGGCGAAUGGGACCCA [U46C C57A] | 1.22 |
| GGCCGGCAUGGUCCCAGCCUCCUCGCUGGCGCCGGCUGGGCAACACUCCUAGGGGACCGUCCCCUCGGUAAUGGCGAAUGGGACCCA [U46C G50U] | 0.779 |
| GGCCGGCAUGGUCCCAGCCUCCUCGCUGGCGCCGGCUGGGCAACACUCCGAGGGGACCGUCCCCUCGGUAAUGGCGAAUGGGACCUA [U46C C86U] | 0.697 |
| GGCCGGCAUGGUCCCAGCCUCCUCGCUGGCGCCGGCUGGGCAACAAUCCGAGGGGACCGUCCCCUCGGUAAUGGCGAACGGGACCCA [U46A U79C] | 0.215 |
| GGCCGGCAUGGUCCCAGCCUCCUCGCUGGCGCCGGCUGGGCAACAAUCCGAGGGGACCGUCCCCUCGGUAAUGGCGAAUGGUACCCA [U46A G82U] | 0.119 |
| GGCCGGCAUGGUCCCAGCCUCCUCGCUGGCGCCGGCUGGGCAACACUCCGAGGGGACCGUCCCCUCGGUAAUUGCGAAUGGGACCCA [U46C G73U] | 0.151 |
| GGCCGGCAUGGUCCCAGCCUCCUCGCUGGCGCCGGCUGGGCAACACUCCGAGGGGACCGUCCCCUCGGUAAUAGCGAAUGGGACCCA [U46C G73A] | 0.475 |
| GGCCGGCAUGGUCCCAGCCUCCUCGCUGGCGCCGGCUGGGCAACACUCCGAGUGGACCGUCCCCUCGGUAAUGGCGAAUGGGACCCA [U46C G53U] | 0.831 |
| GGCCGGCAUGGUCCCAGCCUCCUCGCUGGCGCCGGCUGGGCAACAAUCCGAGGGGACCGUCCCCUCGGUAAUGACGAAUGGGACCCA [U46A G74A] | 0.519 |
| GGCCGGCAUGGUCCCAGCCUCCUCGCUGGCGCCGGCUGGGCAACACUCCGAGGGGACCGUCCACUCGGUAAUGGCGAAUGGGACCCA [U46C C63A] | 0.718 |
| GGCCGGCAUGGUCCCAGCCUCCUCGCUGGCGCCGGCUGGGCAACACUCCGAGGGGACCGUCCUCUCGGUAAUGGCGAAUGGGACCCA [U46C C63U] | 0.671 |
| GGCCGGCAUGGUCCCAGCCUCCUCGCUGGCGCCGGCUGGGCAACACUCCGAGGGUACCGUCCCCUCGGUAAUGGCGAAUGGGACCCA [U46C G55U] | 0.831 |
| GGCCGGCAUGGUCCCAGCCUCCUCGCUGGCGCCGGCUGGGCAACACACCGAGGGGACCGUCCCCUCGGUAAUGGCGAAUGGGACCCA [U46C U47A] | 1.08 |
| GGCCGGCAUGGUCCCAGCCUCCUCGCUGGCGCCGGCUGGGCAACACCCCGAGGGGACCGUCCCCUCGGUAAUGGCGAAUGGGACCCA [U46C U47C] | 0.743 |
| GGCCGGCAUGGUCCCAGCCUCCUCGCUGGCGCCGGCUGGGCAACACUCCGAGGGGACCGUCCCCACGGUAAUGGCGAAUGGGACCCA [U46C U65A] | 0.853 |
| GGCCGGCAUGGUCCCAGCCUCCUCGCUGGCGCCGGCUGGGCAACAGUCCGAGGGGACCGUCCCCUCGGUAAUGGCGAAUGGGACCCC [U46G A87C] | 0.966 |
| GGCCGGCAUGGUCCCAGCCUCCUCGCUGGCGCCGGCUGGGCAACAGUCCGAGGGGACCGUCCCCUCGGUAAUGGCGAAUGGGACCCU [U46G A87U] | 0.67 |
| GGCCGGCAUGGUCCCAGCCUCCUCGCUGGCGCCGGCUGGGCAACAAUCCGAGGUGACCGUCCCCUCGGUAAUGGCGAAUGGGACCCA [U46A G54U] | 0.684 |
| GGCCGGCAUGGUCCCAGCCUCCUCGCUGGCGCCGGCUGGGCAACACUCCGAGGGGGCCGUCCCCUCGGUAAUGGCGAAUGGGACCCA [U46C A56G] | 0.643 |
| GGCCGGCAUGGUCCCAGCCUCCUCGCUGGCGCCGGCUGGGCAACAAUCCGAGGGGACCGUCCCCUCGGUAAUGGCUAAUGGGACCCA [U46A G76U] | 0.954 |
